In US20210388087A1 (Chugai, published 2021):
Where a chain is given by its changes, count along the chain named. Numbers in names are those of the source.

B1: CE115HA000 N31S one-arm antibody (antibody, human IgG1, kappa, L234A L235A, N297A, name in Kabat numbering)
heavy: QVQLVESGGGVVQPGRSLRLSCAASGFTFSSAWMHWVRQAPGKGLEWVAQIKAKSNNYATYYAESVKGRFTISRDDSKNSLYLQMNSLKTEDTAVYYCRYVHYGAYYGVDAWGQGTTVTVSSASTKGPSVFPLAPSSKSTSGGTAALGCLVKDYFPEPVTVSWNSGALTSGVHTFPAVLQSSGLYSLSSVVTVPSSSLGTQTYICNVNHKPSNTKVDKKVEPKSCDKTHTCPPCPAPEAAGGPSVFLFPPKPKDTLMISRTPEVTCVVVDVSHEDPEVKFNWYVDGVEVHNAKTKPREEQYASTYRVVSVLTVLHQDWLNGKEYKCKVSNKALPAPIEKTISKAKGQPREPQVYTLPPSRCELTKNQVSLSCAVKGFYPSDIAVEWESNGQPENNYKTTPPVLDSDGSFFLVSKLTVDKSRWQQGNVFSCSVMHEALHNHYTQKSLSLSPDYKDDDDK
chain: EPKSSDKTHTCPPCPAPELLGGPSVFLFPPKPKDTLMISRTPEVTCVVVDVSHEDPEVKFNWYVDGVEVHNAKTKPREEQYNSTYRVVSVLTVLHQDWLNGKEYKCKVSNKALPAPIEKTISKAKGQPREPQVCTLPPSRDELTKNQVSLWCLVKGFYPSDIAVEWESNGQPENNYKTTPPVLDSDGSFFLYSKLTVDKSRWQQGNVFSCSVMHEALHNRYTQKSLSLSP
light: DIVMTQSPLSLPVTPGEPASISCRSSQSLVHSNRNTYLHWYQQKPGQAPRLLIYKVSNRFSGVPDRFSGSGSGTDFTLKISRVEAEDVGVYYCGQGTQVPYTFGQGTKLEIKRTVAAPSVFIFPPSDEQLKSGTASVVCLLNNFYPREAKVQWKVDNALQSGNSQESVTEQDSKDSTYSLSSTLTLSKADYEKHKVYACEVTHQGLSSPVTKSFNRGEC
B2: CE115HA000 N53H one-arm antibody (antibody, human IgG1, kappa, L234A L235A, N297A, name in Kabat numbering)
heavy: B1 heavy with S31N, N56H
chain: B1 chain
light: B1 light
B3: CE115HA000 N53Q one-arm antibody (antibody, human IgG1, kappa, L234A L235A, N297A, name in Kabat numbering)
heavy: B1 heavy with S31N, N56Q
chain: B1 chain
light: B1 light
B4: CE115HA000 N54G one-arm antibody (antibody, human IgG1, kappa, L234A L235A, N297A, name in Kabat numbering)
heavy: B1 heavy with S31N, N57G
chain: B1 chain
light: B1 light
B5: CE115HA000 N53I one-arm antibody (antibody, human IgG1, kappa, L234A L235A, N297A, name in Kabat numbering)
heavy: B1 heavy with S31N, N56I
chain: B1 chain
light: B1 light
B6: CE115HA000 N31Y one-arm antibody (antibody, human IgG1, kappa, L234A L235A, N297A, name in Kabat numbering)
heavy: B1 heavy with S31Y
chain: B1 chain
light: B1 light
B7: CE115HA000 N54Q one-arm antibody (antibody, human IgG1, kappa, L234A L235A, N297A, name in Kabat numbering)
heavy: B1 heavy with S31N, N57Q
chain: B1 chain
light: B1 light
B8: CE115HA000 N53K one-arm antibody (antibody, human IgG1, kappa, L234A L235A, N297A, name in Kabat numbering)
heavy: B1 heavy with S31N, N56K
chain: B1 chain
light: B1 light
B9: CE115HA000 N54F one-arm antibody (antibody, human IgG1, kappa, L234A L235A, N297A, name in Kabat numbering)
heavy: B1 heavy with S31N, N57F
chain: B1 chain
light: B1 light
B10: CE115HA000 N54A one-arm antibody (antibody, human IgG1, kappa, L234A L235A, N297A, name in Kabat numbering)
heavy: B1 heavy with S31N, N57A
chain: B1 chain
light: B1 light
B11: CE115HA000 N54D one-arm antibody (antibody, human IgG1, kappa, L234A L235A, N297A, name in Kabat numbering)
heavy: B1 heavy with S31N, N57D
chain: B1 chain
light: B1 light
B12: CE115HA000 N31W one-arm antibody (antibody, human IgG1, kappa, L234A L235A, N297A, name in Kabat numbering)
heavy: B1 heavy with S31W
chain: B1 chain
light: B1 light
B13: CE115HA000 N53D one-arm antibody (antibody, human IgG1, kappa, L234A L235A, N297A, name in Kabat numbering)
heavy: B1 heavy with S31N, N56D
chain: B1 chain
light: B1 light
B14: CE115HA000 N54L one-arm antibody (antibody, human IgG1, kappa, L234A L235A, N297A, name in Kabat numbering)
heavy: B1 heavy with S31N, N57L
chain: B1 chain
light: B1 light
B15: CE115HA000 N53W one-arm antibody (antibody, human IgG1, kappa, L234A L235A, N297A, name in Kabat numbering)
heavy: B1 heavy with S31N, N56W
chain: B1 chain
light: B1 light
B16: CE115HA000 N53G one-arm antibody (antibody, human IgG1, kappa, L234A L235A, N297A, name in Kabat numbering)
heavy: B1 heavy with S31N, N56G
chain: B1 chain
light: B1 light
B17: CE115HA000 N54K one-arm antibody (antibody, human IgG1, kappa, L234A L235A, N297A, name in Kabat numbering)
heavy: B1 heavy with S31N, N57K
chain: B1 chain
light: B1 light
B18: CE115HA000 N53A one-arm antibody (antibody, human IgG1, kappa, L234A L235A, N297A, name in Kabat numbering)
heavy: B1 heavy with S31N, N56A
chain: B1 chain
light: B1 light
B19: CE115HA000 N53S one-arm antibody (antibody, human IgG1, kappa, L234A L235A, N297A, name in Kabat numbering)
heavy: B1 heavy with S31N, N56S
chain: B1 chain
light: B1 light
B20: CE115HA000 N53Y one-arm antibody (antibody, human IgG1, kappa, L234A L235A, N297A, name in Kabat numbering)
heavy: B1 heavy with S31N, N56Y
chain: B1 chain
light: B1 light
B21: CE115HA000 N54S one-arm antibody (antibody, human IgG1, kappa, L234A L235A, N297A, name in Kabat numbering)
heavy: B1 heavy with S31N, N57S
chain: B1 chain
light: B1 light

Each binder was assayed against T1, CD3 epsilon homodimer protein (UniProt P07766 23-126) (assay: SPR (Biacore T200), CD3 epsilon homodimer on CM4 chip, one-arm antibody as analyte, 25 C;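 note: homodimer attached to the sensor surface via amine coupling, HBS-EP+ used as running buffer during binding runs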).
T1 construct: immobilized on Sensor chip CM4 by amine coupling; also called CD3 (CD3 epsilon)
T1 sequence (P07766 23-126): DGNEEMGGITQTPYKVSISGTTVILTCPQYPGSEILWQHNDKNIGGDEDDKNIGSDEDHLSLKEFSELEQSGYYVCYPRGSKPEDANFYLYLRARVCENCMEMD
Description: An appropriate amount of CD3 epsilon homodimer protein was immobilized onto Sensor chip CM4 (GE Healthcare Japan Corp.) by the amine coupling method. Then, the antibody having an appropriate concentration was injected thereto as an analyte and allowed to interact with the CD3 epsilon homodimer protein on the sensor chip. Then, the sensor chip was regenerated by the injection of 10 mmol/L glycine-HCl (pH 1.5). The assay was conducted at 25 degrees C., and HBS-EP+(GE Healthcare Japan Corp.) was used as a running buffer. […] Each parameter was calculated using Biacore T200 Evaluation Software (GE Healthcare Japan Corp.).

Point of comparison: B12, “ratio of amounts bound (altered form / CE115HA000)” value 0.63. Against it:
- B1 — higher, 0.81
- B2 — higher, 0.76
- B3 — higher, 1.1
- B4 — higher, 0.98
- B5 — higher, 0.68
- B6 — higher, 0.64
- B7 — higher, 0.84
- B8 — higher, 0.78
- B9 — higher, 1.12
- B10 — higher, 0.85
- B11 — lower, 0.62
- B13 — lower, 0.39
- B14 — higher, 0.94
- B15 — higher, 0.88
- B16 — lower, 0.5
- B17 — higher, 1.2
- B18 — higher, 0.7
- B19 — higher, 0.83
- B20 — the same, 0.63
- B21 — higher, 0.84
